From patent US20030124664A1 come the findings set out here.

The target of the test is human growth hormone (hGH) with the N-terminal phenylalanine, expressed and secreted from plasmid phGH4R (human) (UniProt P01241). Put plainly: cell-based or functional assay.
human growth hormone (hGH) with the N-terminal phenylalanine, expressed and secreted from plasmid phGH4R (human), sequence (P01241 27-217): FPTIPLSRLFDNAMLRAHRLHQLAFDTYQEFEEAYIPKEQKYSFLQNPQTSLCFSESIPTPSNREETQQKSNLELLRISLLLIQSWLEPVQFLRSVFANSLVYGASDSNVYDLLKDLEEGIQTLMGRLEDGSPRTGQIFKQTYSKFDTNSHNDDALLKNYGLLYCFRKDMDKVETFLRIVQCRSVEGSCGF

B1: native-sequence aminopeptidase b2324 (product of the E. coli chromosomal yfcK gene) (enzyme)
chain: MRSLTHIAKIEPPPVRRVTYVKHYSIQPANLEFNAEGTPVSRDFDDVYFSNDNGLEETRYVFLGGNQLEVRFPEHPHPLFVVAESGFGTGLNFLTLWQAFDQFREAHPQAQLQRLHFISFEKFPLTRADLALAHQHWPELAPWAEQLQAQWPMPLPGCHRLLLDEGRVTLDLWFGDINELTSQLDDSLNQKVDAWFLDGFAPAKNPDMWTQNLFNAMARLARPGGTLATFTSAGFVRRGLQDAGFTMQKRKGFGRKREMLCGVMEQTLPLPCSAPWFNRTGSSKREAAIIGGGIASALLSLALLRRGWQVTLYCADEAPALGASGNRQGALYPLLSKHDEALNRFFSNAFTFARRFYDQLPVKFDHDWCGVTQLGWDEKSQHKIAQMLSMDLPAELAVAVEANAVEQITGVATNCSGITYPQGGWLCPAELTRNVLELAQQQGLQIYYQYQLQNLSRKDDCWLLNFAGDQQATHSVVVLANGHQISRFSQTSTLPVYSVAGQVSHIPTTPELAELKQVLCYDGYLTPQNPANQHHCIGASYHRGSEDTAYSEDDQQQNRQRLIDCFPQAQWAKEVDVSDKEARCGVRCATRDHLPMVGNVPDYEATLVEYASLAEQKDEAVSAPVFDDLFMFAALGSRGLCSAPLCAEILAAQMSDEPIPMDASTLAALNPNRLWVRKLLKGKAVKAG
Consider B1, for which the Area % des-phe hGH, control strain lysate, 37° C., 0 h (LC-MS) is 0.36 Area %; the Area % des-phe hGH, control strain lysate, 37° C., 15 h (LC-MS) is 46.8 Area %; the Area % des-phe hGH, control strain lysate, 37° C., 24 h (LC-MS) was 55.3 Area %; the Area % des-phe hGH, control strain lysate, RT, 0 h (LC-MS) is 0.36 Area %. This molecule also had an Area % des-phe hGH, control strain lysate, RT, 15 h (LC-MS) of 1.24 Area %; an Area % des-phe hGH, control strain lysate, RT, 24 h (LC-MS) of 2.15 Area %; an Area % des-phe hGH, control strain lysate, RT, 42 h (LC-MS) of 3 Area %.
